Measured values: patent US20060024313A1, “Agents that disrupt dimer formation in DPP-IV family of prolyl dipeptidases” (priority 2004, published 2006)
“And” between values parts separate entries of the source, which are not always exact repeats. Equal values may be shown once. Marks after values point to notes of the source that are not given here. Peptide text beside a SMILES is read from it.

Key:
[1] = Size exclusion chromatography (gel filtration, Superdex 200); format: physicochemical; conditions: gel filtration experiments; PBS buffer
Description: Chemical crosslinking in intact cells was conducted as described (24). Size exclusion chromatography was conducted at 4° C. Purified proteins (0.5 ml at a concentration of 5 uM) were applied to a Superdex 200 10/30 column (10×300-310 mm) pre-equilibrated with PBS. The sample was eluted with the same buffer at 0.3 ml/min and 0.25 ml fractions were collected. The Superdex 200 10/30 column was calibrated with the Stokes Radii of ferritin (6.1 nm), catalase (5.22 nm), aldolase (4.81 nm), albumin (3.55 nm), ovalbumin (3.05 nm) and chymotrypsinogen A (2.09 nm) from Amersham-Pharmacia.

DPP-IV [2] = assay: Kinetic constant measurements with chromogenic substrate H-Gly-Pro-pNA; format: biochemical, human; conditions: for Km / kcat: substrate H-Gly-Pro-pNA
Description: To measure the kinetic parameters, the chromogenic substrate H-Gly-Pro-pNA was utilized to initiate the reaction, which was monitored at OD 405 nm as a function of time (21). […] The initial rate was measured with less than 10% substrate depletion for the first 10 to 300 seconds. The steady-state parameters, kcat and Km, were determined from initial velocity measurements at 0.5 to 5 Km of the substrate concentrations. Lineweaver-Burk plots were analyzed using non-linear regression of the Michaelis-Menten equation. Correlation coefficients better than 0.99 were obtained throughout.

DPP-IV [3] = assay: Dilution experiment (specific activity after two-fold dilutions); format: biochemical, human; conditions: 200 nM to 1.6 nM enzyme, 16 hours at 25° C., 10 uM H-Gly-Pro-pNA
Description: Enzyme concentrations ranging from 200 nM to 1.6 nM were used in the dilution experiments. The experiments were carried out with consecutive two-fold dilutions in PBS containing 0.1% BSA and 1 mM DTT (dithiothreitol). The solution after dilution was incubated at 25° C. for 16 hours to ensure attainment of dimer-monomer equilibrium. The reaction was initiated by adding the substrate H-Gly-Pro-pNA at a final concentration of 10 uM for both wild type DPP-IV and H750A proteins. The initial rate of the reaction was recorded and converted to specific activity.

[4] = Analytical ultracentrifugation (AUC): sedimentation velocity and equilibrium; format: physicochemical; conditions: for quaternary structure (monomer/dimer) by AUC: PBS buffer where stated; for Stokes' radius (Rs): sedimentation velocity experiments
Description: Buffer was changed using an Amicon device and DPP-IV proteins were allowed to equilibrate for at least four hours or longer as indicated in the text at 25° C. after buffer changes. The sedimentation coefficients (S) of the enzyme were estimated by a Beckman-Coulter XL-A analytical ultracentrifuge with an An60Ti rotor as described (25). Sedimentation velocity analysis was performed at 40,000 rpm at 25° C. with standard double sector aluminum centerpieces. The UV absorption of the cells was scanned every 5 min for 4 hours. Sedimentation equilibrium was performed at 20° C. with six-channel open centerpieces and then centrifuged at 12,000 rpm for 12 hours. The data from both sedimentation velocity and sedimentation experiments were analyzed with the SedFit version 8.7 program to obtain molecular weights and sedimentation coefficients (25). Sednterp version 1.07 program is used to obtain solvent density, viscosity, Stokes' radius (Rs) and anhydrous frictional ratio (f/fo).

H750A monomers = H750A monomers (Homo sapiens, UniProt P27487, H750A); assay: AUC of H750A in the presence of inhibitor or dipeptide product; conditions: PBS buffer, FIG. 14
Chain of H750A monomers (P27487 39-766 H750A): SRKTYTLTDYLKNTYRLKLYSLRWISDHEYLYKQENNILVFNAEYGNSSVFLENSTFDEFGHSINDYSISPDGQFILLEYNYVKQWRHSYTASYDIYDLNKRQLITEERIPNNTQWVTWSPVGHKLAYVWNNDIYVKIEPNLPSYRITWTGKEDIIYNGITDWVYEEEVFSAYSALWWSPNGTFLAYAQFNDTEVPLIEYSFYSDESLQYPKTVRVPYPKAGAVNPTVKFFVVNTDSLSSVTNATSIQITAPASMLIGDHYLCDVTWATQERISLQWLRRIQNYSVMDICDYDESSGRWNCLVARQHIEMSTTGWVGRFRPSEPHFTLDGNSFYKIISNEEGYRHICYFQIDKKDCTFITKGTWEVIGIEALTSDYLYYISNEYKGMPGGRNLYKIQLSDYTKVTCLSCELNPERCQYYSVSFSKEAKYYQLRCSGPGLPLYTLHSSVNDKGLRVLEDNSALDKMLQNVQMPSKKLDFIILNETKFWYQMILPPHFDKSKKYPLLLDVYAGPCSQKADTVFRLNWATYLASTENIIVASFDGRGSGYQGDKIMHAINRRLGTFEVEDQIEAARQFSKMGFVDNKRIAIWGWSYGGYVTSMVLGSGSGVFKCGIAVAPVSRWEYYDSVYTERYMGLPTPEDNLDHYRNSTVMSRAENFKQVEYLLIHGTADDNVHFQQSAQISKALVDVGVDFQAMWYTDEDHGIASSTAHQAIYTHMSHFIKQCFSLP
Description: AUC was performed for H750A in the presence of the proline-mimetic inhibitor and Gly-Pro dipeptide product, since the substrate Gly-Pro-pNA is cleaved by the enzyme.

Compound | Stokes' radius (Rs) [1] | Km (DPP-IV [2]; High salt buffer) | kcat (DPP-IV [2]; High salt buffer) | Km (DPP-IV [2]; PBS buffer) | kcat (DPP-IV [2]; PBS buffer) | AUC analysis or catalytic activities in low salt buffer (DPP-IV [2]; low salt buffer compared to PBS buffer (data not shown)) | specific activity on dilution (DPP-IV [3]) | Sedimentation coefficient (s20, w) ([4]; High salt buffer) | quaternary structure (subunit composition) by sedimentation velocity ([4]; High salt buffer (0.5 M sodium sulfate)) | Anhydrous frictional ratio (f/fo) ([4]; PBS buffer) | Sedimentation coefficient (s20, w) ([4]; PBS buffer) | quaternary structure (monomer/dimer) by AUC [4] | Stokes' radius (Rs) ([4]; High salt buffer) | Stokes' radius (Rs) ([4]; PBS buffer) | dimer formation of H750A monomers in the presence of the substance (H750A monomers)
rDPP-IV: recombinant wild-type human DPP-IV (aa 39 to 766) from baculoviral infected insect cells | 5.6 nm and 5.6^a nm | 181 µM | 57 s⁻¹ | 90 µM | 87 s⁻¹ | no differences | no decrease in specific activity | 5.0 S and 4.9 S | dimer | 1.4 | 8.4 S | non-spherical dimer | 4.9^b nm | 5.0^b nm | –
sDPP-IV: endogenous DPP-IV purified from human semen | 5.9 nm and 5.9^a nm | – | – | 96 µM | 73 s⁻¹ | – | no decrease in specific activity | – | – | 1.4 | 9.1 S | homodimeric | – | 5.8^b nm | –
NCC(=O)N1CCC[C@H]1C(=O)O [G-P-OH, Gly-Pro] (H-Gly-Pro-OH) | – | – | – | – | – | – | – | – | – | – | – | – | – | – | did not associate to form dimers
